We go through one molecule from patent publication US12012599B2, “Compositions and methods for modulating left-right differentiation factor (LEFTY) and bone morphogenic factor (BMP)” (CZ Biohub SF LLC, priority 2018, dated 2024).

One assay has as its system pSMAD2. Kind of assay: Western-blot of pSMAD2 in Comma-D mammary epithelial cells. Type of assay: cell-based, mouse. To be noted: Comma-D cells blocked with LEFTY1 200 ng/ml 1 hour, stimulated with BMP7 and Nodal 50 ng/ml 30 minutes. The protocol: FIGS. 4J-4L. LEFTY1 inhibits pSMAD2 and pSMAD5 in Comma-D mouse mammary epithelial cells. […] Comma-D cells were serum starved 16 hours and blocked with LEFTY1 (200 ng/ml) for 1 hour and stimulated with BMP7 (50 ng/ml) and Nodal (50 ng/ml) for 30 minutes in serum free media. Cells were harvested in 1×RIPA Buffer with 1× protease and phosphatase inhibitors on ice. Lysates were diluted in 4× sample buffer and boiled at 95° C. for 5 minutes and then run on a 10% SDS-page gradient gels at 100V for 1 hour. […] The membranes were incubated with either pSMAD2, pSMAD5, total SMAD2/3 or SMAD1/5/8 antibodies overnight. Incubation with secondary antibodies containing fluorophores at 1:20,000 dilution (IRDye 800CW conjugated goat anti-rabbit #926-32211, IRDye 680 conjugated goat anti-mouse antibodies #926-32220, LI-COR Biosciences, Lincoln, NE) enabled visualization on the Odyssey Infrared Imaging System from LI-COR Biosciences. […] Data are represented as median±S.D. Statistical analysis, one-way ANOVA with post-hoc Tukey multiple comparison, ****p<0.0001, ***p<0.001; unless stated analysis is non-significant with p>0.05.

The target of another assay is T1, BMP7-BMPR2 interaction (Homo sapiens, UniProt Q13873).
T1 construct: endogenous in cells; host or cells: MDA-MB-231
T1 sequence (Q13873 27-1038): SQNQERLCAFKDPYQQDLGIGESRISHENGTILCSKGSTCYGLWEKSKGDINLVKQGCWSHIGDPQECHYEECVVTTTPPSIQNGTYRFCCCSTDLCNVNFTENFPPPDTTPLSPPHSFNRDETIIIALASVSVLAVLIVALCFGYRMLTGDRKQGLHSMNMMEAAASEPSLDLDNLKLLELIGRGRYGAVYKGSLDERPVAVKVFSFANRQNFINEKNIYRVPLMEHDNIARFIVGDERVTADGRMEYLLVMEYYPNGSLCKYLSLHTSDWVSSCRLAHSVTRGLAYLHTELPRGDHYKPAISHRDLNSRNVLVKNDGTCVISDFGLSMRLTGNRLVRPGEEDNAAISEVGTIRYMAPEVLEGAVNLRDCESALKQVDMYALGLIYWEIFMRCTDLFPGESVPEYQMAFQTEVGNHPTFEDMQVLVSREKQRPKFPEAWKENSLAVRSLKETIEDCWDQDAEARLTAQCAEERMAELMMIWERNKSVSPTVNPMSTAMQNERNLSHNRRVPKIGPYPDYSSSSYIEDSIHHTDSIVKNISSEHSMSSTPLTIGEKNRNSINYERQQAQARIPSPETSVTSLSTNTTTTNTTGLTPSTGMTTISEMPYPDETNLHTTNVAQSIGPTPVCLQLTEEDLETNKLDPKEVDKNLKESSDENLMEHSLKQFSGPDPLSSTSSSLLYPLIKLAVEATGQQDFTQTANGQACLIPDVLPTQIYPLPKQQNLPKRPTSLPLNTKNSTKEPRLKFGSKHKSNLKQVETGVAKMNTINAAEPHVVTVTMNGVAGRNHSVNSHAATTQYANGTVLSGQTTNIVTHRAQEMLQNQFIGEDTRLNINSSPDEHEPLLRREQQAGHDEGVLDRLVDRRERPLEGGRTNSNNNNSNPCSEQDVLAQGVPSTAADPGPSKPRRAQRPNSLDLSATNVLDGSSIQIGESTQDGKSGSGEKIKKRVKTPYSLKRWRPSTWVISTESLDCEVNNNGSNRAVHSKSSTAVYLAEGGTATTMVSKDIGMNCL
Briefly: Proximity Ligation Assay of BMP7-BMPR2 interaction in MDA-MB-231. The class given is cell-based. As to conditions: 50 ng/mL BMP7 30 minutes, exogenous LEFTY 200 ng/mL. As for the experimental part: FIGS. 20 and 21 are data from an experiment in which the breast cancer cell line MDA-MB-231 was plated and serum starved for 24 hours. 50 ng/mL BMP7 was added for 30 minutes to activate pSMAD5, either in the absence or presence of exogenous LEFTY (200 ng/mL). LEFTY-BMPR2 interaction, BMP7-BMPR2 interaction (as visualized by Proximity Ligation Assay, red), pSMAD5 status (As visualized by Immunofluorescence, green) were monitored and captured.
For the PLA assay (DUOLink, OLink Biosciences, Sigma-Aldrich #DUO92102), cells were seeded and treated on 13 mm glass coverslips previously coated with Poly-L-Lysine (Millipore). The cells were fixed with ice cold 100% Methanol for 5 minutes at −20° C. and then rehydrated thrice in PBS for 5 min each. Coverslips were blocked for 30 min with PBS+3% BSA and then incubated with appropriate dilution of primary antibodies in PBS+1% BSA for 1 h in a moist environment at room temperature. Rabbit anti-LEFTY1 and Thermo mouse anti-BMPR2 were used to characterize the interaction between LEFTY and BMPR2 (Table S2). […]
Breast cancer cell line MDA-MB-231 was plated and serum starved for 24 hours. […] LEFTY-BMPR2 interaction, BMP7-BMPR2 interaction (as visualized by Proximity Ligation Assay, red), pSMAD5 status (As visualized by Immunofluorescence, green) were monitored and captured.

B1: LEFTY1: left-right determination factor 1, secreted TGF-β superfamily protein; generic LEFTY may mean LEFTY1 or LEFTY2 (protein, UniProt O75610 77-366, looked up)
Left-right determination …: RFSQSFREVAGRFLALEASTHLLVFGMEQRLPPNSELVQAVLRLFQEPVPKAALHRHGRLSPRSARARVTVEWLRVRDDGSNRTSLIDSRLVSVHESGWKAFDVTEAVNFWQQLSRPRQPLLLQVSVQREHLGPLASGAHKLVRFASQGAPAGLGEPQLELHTLDLGDYGAQGDCDPEAPMTEGTRCCRQEMYIDLQGMKWAENWVLEPPGFLAYECVGTCRQPPEALAFKWPFLGPRQCIASETDSLPMIVSIKEGGRTRPQVVSLPNMRVQKCSCASDGALVPRRLQP
Regarding B1, the pSMAD2 signal entry in the assay with pSMAD2 is listed as “inhibited”. In addition, the BMP7-BMPR2 interaction entry with BMP7-BMPR2 interaction is recorded as “reduces BMP7-BMPR2 interactions”.
